Laboratory results: US20120277143A1 (Janssen / Centocor, published 2012)
Where a chain is given by its changes, count along the chain named. Each block holds one binder with its values, some of them ahead of it.

Columns and labels:
[1] = molecular target: cyno IL13 (cynomolgus monkey, UniProt Q0PW92 21-132); experiment: cell-based or functional assay
[2] = molecular target: T1, human IL13 (human, UniProt P35225 35-146, biotinylated in the SPR assays (sites not given)); experiment: cell-based or functional assay
[3] = molecular target: T1, human IL13; experiment: SPR BIAcore, biotin-IL13 on SA chip, global fit
Method: Recombinant human IL13 (Peprotech) was minimally biotinylated on ice using sulfo-NHS-LCLC-Biotin and desalted into the experimental running buffer containing 10 mM HEPES, 150 mM NaCl, pH 7.4, 0.01% Tween-20, and 0.1 mg/mL BSA. Biotinylated IL13 was captured at three different surface densities (from about 150, 50, and 25 RU) onto three different BIAcore SA (streptavidin) sensor chips. Each binding protein sample was tested at 40 nM as the highest concentration in a 3-fold dilution series over the three different density IL13 surfaces. The dissociation phase for the highest concentration of the binding protein sample was monitored for one hour. The response data from each of the different density surfaces was globally fitted in order to extract estimates of the kinetic and affinity constants which are provided in Table 7 below.

[4] = molecular target: T1, human IL13; experiment: cell-based or functional assay; remark: listed apart in the source
[5] = molecular target: T1, human IL13; experiment: SPR ProteOn, biotin-hIL13 on streptavidin, 1:1 global fit
Method: Complete kinetic data describing binding of various engineered binding protein molecules to human IL13 was measured using a method similar to that described above for the single point affinity analysis. Briefly, streptavidin (Pierce) was immobilized to similar levels (˜1800 RUs) on all six channels of a ProteOn GLC chip via amine coupling (pH 5.0). Biotinylated hIL13 was captured at different surface densities (600˜100 RUs) on different channels. Protein binding was tested starting at 40 nM diluted in a 3-fold concentration series over the different density IL13 surfaces; a buffer sample was injected to monitor the baseline stability. Dissociation phases for all concentrations of each binding protein sample were monitored for one hour at a flow rate of 100 μl/min. Response data for all concentration series from the different density surfaces were globally fit to a 1:1 simple langmuir binding model to extract values of the kinetic (kₒₙ, koff) and affinity (KD) constants provided in Table 16.

[6] = molecular target: T2, human IL13 R130Q (human, UniProt P35225 35-146, biotinylated (sites not given)); experiment: Luminex competition, 80 pM biotin-IL13 R130Q binding to IL13Ra2-Fc beads
T2 construct: Peprotech; also called IL13R13Q; R111Q
Method: (§1) Binding protein inhibition of IL13 binding to Rα2 was assessed using IL13Rα2-Fc (R&D Systems) conjugated to carboxylated Luminex microspheres according to the manufacturer's protocol. For biotinylation of IL13, recombinant human IL13 R130Q (Peprotech) was biotinylated at a 4:1 ratio using EZ-Link NHS-LC-Biotin (Pierce, #21336) for 2 hours at RT. The protein was dialyzed in PBS overnight to remove excess biotinylation reagent. For neutralization experiments, 5000 IL13 Rα2-Fc conjugated beads in 50 μl were added to each well of a 96-well filter plate (Millipore). 50 μl of biotinylated human IL13 at 1 ng/ml (80 pM) was mixed with an appropriate dilution of binding protein in Luminex Assay Buffer (PBS, 1% BSA, pH 7.4). The plate was incubated for 1 hour at RT in the dark on a plate shaker, set to shake vigorously to avoid bead aggregation. The plate was washed 3 times with 150 μl of wash buffer (PBS, 1% BSA, pH 7.4, 0.05% Tween-20) using a vacuum manifold followed by the addition of 50 μl of Streptavidin PE at 25 μg/ml and incubated at RT for 20 minutes. The plates were washed again and 100 μl of sheath fluid was added and the plate was placed on the shaker for 1 minute. Plates were read using a Luminex® 100 system; data were plotted as a function of binding protein concentration. IC₅₀ values were determined by fitting the data to the equation for sigmoidal dose response using PRIZM software (GraphPAD PRIZM).

[7] = molecular target: T3, human IL4 (human, UniProt P05112 25-153, biotinylated in the SPR and competition assays (sites not given)); experiment: cell-based or functional assay
T3 sequence: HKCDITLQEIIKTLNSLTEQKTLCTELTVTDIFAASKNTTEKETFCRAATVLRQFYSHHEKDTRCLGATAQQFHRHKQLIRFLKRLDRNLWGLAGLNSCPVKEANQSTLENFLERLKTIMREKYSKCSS

[8] = molecular target: T3, human IL4; experiment: IL4RA binding inhibition; assay not re-described (Luminex of Example 2)
[9] = molecular target: T1, human IL13; experiment: Affinity to IL13; method not re-described
[10] = molecular target: T2, human IL13 R130Q; experiment: IL13Ra2 binding inhibition; assay not re-described (Luminex of Example 2)
Method: as §1

[11] = molecular target: T3, human IL4; experiment: Affinity to IL4; method not re-described
[12] = molecular target: T1, human IL13; experiment: cell-based or functional assay; remark: listed apart in the source
[13] = molecular target: T2, human IL13 R130Q; experiment: IL13Ra2 binding inhibition; repeats Table 17
Method: as §1

[14] = molecular target: T3, human IL4; experiment: IL4R binding inhibition; repeats Table 17
Method: AR protein inhibition of IL4 binding to IL4 RA was assessed using IL4 RA-Fc (R&D Systems), comprising the Gly24-His232 which represents the ECD (SEQ ID NO: 5) fused to a human IgGl-Fc and therefor a disulfide linked homodimer. The protein was conjugated to carboxylated Luminex microspheres according to the manufacturer's protocol. For neutralization experiments, 5000 IL4RA-Fc conjugated beads in 50 μl were added to each well of a 96-well filter plate (Millipore). Biotinylated human IL4 was mixed with an appropriate dilution of AR protein in Luminex Assay Buffer (PBS, 1% BSA, pH 7.4) to give a final concentration of 67 pM IL4. The plate was incubated for 1 hour at RT in the dark on a plate shaker, set to shake vigorously to avoid bead aggregation. The plate was washed twice with 150 μl of wash buffer (PBS, 0.1% BSA, pH 7.4, 0.05% Tween-20) using a vacuum manifold followed by the addition of 50 μl of Streptavidin PE at 25 μg/ml and incubated at RT for 20 minutes. The plates were washed again and 150 μl of sheath fluid was added and the plate was placed on the shaker for 5 minute. Plates were read using a Luminex® 100 system; data were plotted as a function of AR protein concentration. IC₅₀ values were determined by fitting the data to the equation for sigmoidal dose response using PRISM software (GraphPAD PRISM) (Table 6).

T1 sequence (P35225 other isoform, or with tags, fused parts or gaps limits assumed): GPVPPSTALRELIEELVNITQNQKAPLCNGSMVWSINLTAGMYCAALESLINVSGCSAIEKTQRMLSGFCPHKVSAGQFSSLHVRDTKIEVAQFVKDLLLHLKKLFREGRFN
T2 sequence (P35225 35-146 limits assumed, stated change not applied): as the sequence (P35225 other isoform, or with tags, fused parts or gaps limits assumed) above, with R110Q counted along it
Chain of cyno IL13 (Q0PW92 entry or part of it): as the sequence (P35225 other isoform, or with tags, fused parts or gaps limits assumed) above, with G1S, R10K, M42V, S67N, H83R, L100V, R110Q counted along it

Cyno IL13 STAT6 IC50 [1]: 0.098 nM
STAT6 Phospho IC50 [2]: 0.0025 nM
TARC expression IC50 [2]: 0.0196 nM
Kd [3]: 0.0328 nM
koff [3]: 5.3e-05 s⁻¹
kon [3]: 1.62e+06 M⁻¹ s⁻¹
HEK STAT6 IC50 [4]: 0.0025 nM
Kd [5]: 0.0168 nM
IC50 [6]: 0.0034 nM
B1: 7G11 (designed binder)
chain: DLGKKLLEAARAGQDDEVRILMANGADVNATDEFDSTPLHLAARHGHLEIVEVLLKYGADVNAADFIGDTPLHLAAYRGHLEIVEVLLKCGVDVNADDHGDTPLHLAASMGHLEIVEVLLKNGADVNAQDKFGKTAFDISIDNGNEDLAEILQKLN
notes: ankyrin repeat protein

HEK STAT6 IC50 [4]: 0.085 nM
Kd [5]: 0.0242 nM
B2: 7G11r7 (designed binder)
chain: B1 chain with D1G, G3D, C90Y, M110T, N122H, L155A, N156A
notes: optimized 7G11; expressed without HIS tag

HEK STAT6 IC50 [4]: 0.202 nM
Kd [5]: 0.0656 nM
B3: 9F8r3 (designed binder)
chain: GLDKKLLEAARAGQDDEVRILMANGADVNASDIFGSTPLHLAARHGHLEIVEVLLKYGADVNAFDFIGDTPLHLAAYRGHLEIVEVLLKYGVDVNADDHGDTPLHLAAQIGHLEIVEVLLKHGADVNAQDKFGKTAFDISIDNGNEDLAEILQKAA
notes: optimized 9F8; expressed without HIS tag

A549/TARC IL4 IC50 [7]: 0.05 nM
HEK stat6 hIL4 IC50 [7]: 0.0039 nM
Ramos Assay IC50 [7]: 0.008 nM
IC50 [8]: 0.034 nM
Kd [9]: 0.0384 nM
IC50 [10]: 0.199 nM
Kd [11]: 0.0109 nM
A549/TARC IL13 IC50 [12]: 0.131 nM
HEK Stat6 human IL13 IC50 [12]: 0.027 nM
IC50 [13]: 0.199 nM
IC50 [14]: 0.034 nM
B7: C06_53G6_V1_C01_6G9_V1 (designed binder)
chain: DLGKKLLEAARAGQDDEVRILMANGADVNATDDWGDTLLHLAATDGHLEIVEVLLKAGADVNANDAIGDTPLHLAALYGHLEIVEVLLKYGADVNATDLHGFTPLHLAAFWGHLEIVEVLLKHGADVNAQDKFGKTAFDISIDNGNEDLAEILQKLNGGGGSGGGGSGGGGSGGGGSDLDKKLLEAARAGQDDEVRILMANGADVNARDSYGSTPLHLAAREGHLEIVEVLLKYGADVNAADFIGDTPLHLAAYRGHLEIVEVLLKYGADVNASDITGETPLHLAAQIGHLEIVEVLLKHGADVNAQDKFGKTAFDISIDNGNEDLAEILQKLN
notes: bispecific IL4/IL13 ankyrin repeat protein with (GGGGS)4 linker; also called bispecific AR protein

The next lines start with the binder.

B4: C01_6G9_V1_C06_53G6_V1 (designed binder)
chain: DLDKKLLEAARAGQDDEVRILMANGADVNARDSYGSTPLHLAAREGHLEIVEVLLKYGADVNAADFIGDTPLHLAAYRGHLEIVEVLLKYGADVNASDITGETPLHLAAQIGHLEIVEVLLKHGADVNAQDKFGKTAFDISIDNGNEDLAEILQKLNGGGGSGGGGSGGGGSGGGGSDLGKKLLEAARAGQDDEVRILMANGADVNATDDWGDTLLHLAATDGHLEIVEVLLKAGADVNANDAIGDTPLHLAALYGHLEIVEVLLKYGADVNATDLHGFTPLHLAAFWGHLEIVEVLLKHGADVNAQDKFGKTAFDISIDNGNEDLAEILQKLN
notes: bispecific IL13/IL4 ankyrin repeat protein with (GGGGS)4 linker; also called bispecific AR protein
A549/TARC IL4 IC50 [7]: 0.024 nM
HEK stat6 hIL4 IC50 [7]: 0.0005 nM
Ramos Assay IC50 [7]: 0.0048 nM
IC50 [8]: 0.015 nM
Kd [9]: 0.0093 nM
IC50 [10]: 0.099 nM
Kd [11]: 0.0031 nM
A549/TARC IL13 IC50 [12]: 0.075 nM
HEK Stat6 human IL13 IC50 [12]: 0.015 nM
IC50 [13]: 0.099 nM
IC50 [14]: 0.015 nM

B5: IL13 binding protein 6G9 (designed binder)
chain: DLGKKLLEAARAGQDDEVRILMANGADVNARDSYGSTPLHLAAREGHLEIVEVLLKYGADVNAKDMIGDTPLHLAAYRGHLEIVEVLLKNGADVNASDITGETPLHLAAQIGHLEIVEVLLKYGADVNAQDKFGKTAFDISIDNGNEDLAEILQKLN
Cyno IL13 STAT6 IC50 [1]: 0.0964 nM
STAT6 Phospho IC50 [2]: 0.0174 nM
TARC expression IC50 [2]: 0.064 nM
Kd [3]: 0.0577 nM
koff [3]: 5.74e-05 s⁻¹
kon [3]: 995000 M⁻¹ s⁻¹
HEK STAT6 IC50 [4]: 0.0174 nM
Kd [5]: 0.0249 nM
IC50 [6]: 0.031 nM

B6: 6G9r13 (designed binder)
chain: B5 chain with D1A, G3D, K64A, M66F, N90Y, Y123H, L156A, N157A
notes: optimized 6G9; expressed without HIS tag
HEK STAT6 IC50 [4]: 0.0056 nM
Kd [5]: 0.0251 nM

B8: C01_6G9_V1_C06_28E5_V1 (designed binder)
chain: DLDKKLLEAARAGQDDEVRILMANGADVNARDSYGSTPLHLAAREGHLEIVEVLLKYGADVNAADFIGDTPLHLAAYRGHLEIVEVLLKYGADVNASDITGETPLHLAAQIGHLEIVEVLLKHGADVNAQDKFGKTAFDISIDNGNEDLAEILQKLGGGGSGGGGSGGGGSGGGGSRSDLGKKLLEAARAGQDDEVRILMANGADVNAADDSGITPLHLAAEDGHLEIVEVLLKAGADVNAQDNLGDTPLHLAAWTGHLEIVEVLLKAGADVNAYDISGITPLHLAAFYGHLEIVEVLLKHGADVNAQDKFGKTAFDISIDNGNEDLAEILQKLN
notes: as for B4
A549/TARC IL4 IC50 [7]: 0.033 nM
HEK stat6 hIL4 IC50 [7]: 0.002 nM
Ramos Assay IC50 [7]: 0.0069 nM
IC50 [8]: 0.024 nM
Kd [9]: 0.0166 nM
IC50 [10]: 0.032 nM
Kd [11]: 0.0031 nM
A549/TARC IL13 IC50 [12]: 0.092 nM
HEK Stat6 human IL13 IC50 [12]: 0.019 nM
IC50 [13]: 0.032 nM
IC50 [14]: 0.024 nM
